Our source for the Kd values is patent publication US20220307010A1 (published 2022).

B1: hTIGIT (receptor)
chain: MMTGTIETTGNISAEKGGSIILQCHLSSTTAQVTQVNWEQQDQLLAICNADLGWHISPSFKDRVAPGPGLGLTLQSLTVNDTGEYFCIYHTYPDGTYTGRIFLEVLESSVAEHGARFQIP
modifications: biotinylated antigen (site not given)
Regarding B1, the Kd is 327 nM with TIGIT55-11; 153 nM with TIGIT55-06; 97.6 nM with TIGIT55-05; 139 nM with TIGIT55-14; 113 nM with TIGIT55-08; 112 nM with TIGIT55-13. The same molecule showed a Kd with TIGIT55-01 of 15.9 nM.
